Measured values taken from patent publication US9346889 (MEDIAPHARMA S R L, dated 2016).

Columns and labels:
human ErbB3 receptor [1] = target: T1, human ErbB3 receptor (human, UniProt P21860 20-1342); experiment: immunofluorescence on IR-8 human melanoma cells, 10 ug/ml, on ice
T1 construct: whole, on cells; also called HER-3; HER3

human ErbB3 receptor [2] = target: T1, human ErbB3 receptor; experiment: immunofluorescence on IR-8 human melanoma cells
Description: IR-8 human melanoma cells were maintained on ice for 30 minutes in the presence of 10 µg/ml of chimeric (cMP-RM-1 #1) or humanized (hMP-RM-1 #6, hMP-RM-1 #10, hMP-RM-1 #20) MP-RM-1 antibody variants and then returned to 37° C. for 60 minutes. Cells were harvested and stained with a fluorescein-labeled goat anti-human IgG antibody and analyzed by FACS.

human ErbB3 receptor [3] = target: T1, human ErbB3 receptor; experiment: hybridoma screening; reactivity with NIH/3T3 cells transfected with human ErbB3
Description: Four-weeks old Balb/c mice were immunized by intraperitoneal injection of live NIH/3T3 cells transfected with the human ErbB3 receptor. Seven days later, mice were given an additional intraperitoneal injection of the immunogen. After additional seven days, mice were boosted intravenously with the immunogen, and spleens were removed for cell fusion 3 days later. Somatic cell hybrids were prepared by fusion of immune splenocytes with the murine nonsecreting myeloma cell line NS-1. Hybridoma supernatants were selected on the basis of differential reactivity with LTR-ErbB3 transfected cells, but not with LTR-neo NIH/3T3. All positive hybridoma cell colonies were cloned twice by limiting dilution and further characterized.

T1 sequence (P21860 20-1342): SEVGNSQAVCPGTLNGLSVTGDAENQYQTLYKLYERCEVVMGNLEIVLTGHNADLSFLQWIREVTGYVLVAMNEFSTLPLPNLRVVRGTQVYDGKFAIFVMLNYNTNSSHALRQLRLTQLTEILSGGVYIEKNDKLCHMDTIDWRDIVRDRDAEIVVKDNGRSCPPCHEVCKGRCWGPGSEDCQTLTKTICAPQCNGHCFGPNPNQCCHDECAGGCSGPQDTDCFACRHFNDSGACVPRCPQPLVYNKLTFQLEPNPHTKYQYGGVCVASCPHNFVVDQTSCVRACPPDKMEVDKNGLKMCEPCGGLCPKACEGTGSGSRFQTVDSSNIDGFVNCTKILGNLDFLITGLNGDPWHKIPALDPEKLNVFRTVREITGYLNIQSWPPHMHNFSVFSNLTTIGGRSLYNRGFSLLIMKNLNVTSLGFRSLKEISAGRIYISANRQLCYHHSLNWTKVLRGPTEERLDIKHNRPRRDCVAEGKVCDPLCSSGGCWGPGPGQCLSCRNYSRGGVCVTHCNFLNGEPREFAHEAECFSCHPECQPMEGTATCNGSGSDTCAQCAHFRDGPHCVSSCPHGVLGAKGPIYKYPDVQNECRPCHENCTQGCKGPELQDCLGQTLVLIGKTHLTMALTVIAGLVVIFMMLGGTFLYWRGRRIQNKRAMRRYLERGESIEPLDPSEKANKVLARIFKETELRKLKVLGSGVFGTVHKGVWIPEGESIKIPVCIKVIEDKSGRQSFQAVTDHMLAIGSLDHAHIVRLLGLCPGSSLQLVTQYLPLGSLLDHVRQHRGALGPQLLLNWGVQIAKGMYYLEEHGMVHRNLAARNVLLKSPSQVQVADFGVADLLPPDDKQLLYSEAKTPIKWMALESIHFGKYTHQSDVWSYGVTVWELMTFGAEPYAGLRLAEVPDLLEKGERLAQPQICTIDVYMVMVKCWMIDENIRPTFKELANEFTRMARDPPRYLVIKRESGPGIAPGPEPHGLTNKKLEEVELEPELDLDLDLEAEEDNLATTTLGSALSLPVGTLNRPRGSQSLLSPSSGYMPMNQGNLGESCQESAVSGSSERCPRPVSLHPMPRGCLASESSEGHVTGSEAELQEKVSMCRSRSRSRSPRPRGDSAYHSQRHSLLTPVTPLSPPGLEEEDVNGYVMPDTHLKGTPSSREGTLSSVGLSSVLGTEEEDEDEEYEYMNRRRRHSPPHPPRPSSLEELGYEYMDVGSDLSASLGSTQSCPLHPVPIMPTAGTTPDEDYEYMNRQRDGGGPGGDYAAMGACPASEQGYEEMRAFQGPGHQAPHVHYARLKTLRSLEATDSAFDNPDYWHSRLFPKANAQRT

binding result (human ErbB3 receptor [2]) | Binder | other results
– | hMP-RM-1 #6 (antibody, human IgG1, kappa, V domains shown, Humanized IgG1/kappa, from CHO-S cells; also called humanized MP-RM-1 #6; humanized MP-RM-1#6) VH: DVQLVESGGGLVQPGGSLRLSCAASGFTFSTYGMSWVRQTPDKRLEWVATISHGDGYTYYPDSVKGRFTISRDNAKNTLYLQMSSLKSEDTAMYYCARHGDYDDDYYAMDYWGQGTLVTVSS VL: DIQMTQSPSSLSASVGDRVTITCKSSQSLLNSGNQKNYLTWYQQKPGKAPKLLIYWASTRESGVPSRFSGSGSGTDFTLTISSLQPEDFATYYCQNEYTYPLTFGQGTKVEIKR | binding result (human ErbB3 receptor [1]): binds
binds | hMP-RM-1 #10 (antibody, human IgG1, kappa, V domains shown, Humanized IgG1/kappa, from CHO-S cells) VH: DVQLVESGGGLVQPGGSLRLSCAVSGFTFSTYGMSWVRQAPGKGLEWVATISHGDGYTYYPDSVKGRFTISRDNSKNTLYLQMNSLRAEDTAVYYCARHGDYDDDYYAMDYWGQGTLVTVSS VL: DIQMTQSPSSLSASVGDRVTITCKSSQSLLNSGNQKNYLTWYQQKPGKAPKLLIYWASTRESGVPSRFSGSGSGTDFTLTISSLQPEDFATYYCQNEYTYPLTFGQGTKVEIKR | –
– | monoclonal antibody MP-RM-1 (antibody, V domains shown, Murine IgG2a from hybridoma DSM ACC3018; also called DSM ACC3018) VH: DVQLVESGGDLVKPGGSLKLSCVVSGFTFSTYGMSWVRQTPDRRLEWVATISHGDGYTYYPDSVKGRFTISRDNAKNTLHLQMSSLKSEDTAMYYCARHGDYDDDYYAMDYWGQGTSVTVS VL: DIVMTQSPSSLTVIAGEKVTMSCKSSQSLLNSGNQKNYLTWYQQKPGQPPKLLIYWASTRESGVPDRFTGSGSGTDFTLTISSVQAEDLAVYYCQNEYTYPLTFGAGTKLELKR | binding result (human ErbB3 receptor [3]): binds
binds | cMP-RM-1 #1 (antibody, human IgG1, kappa, V domains shown, Chimeric human IgG1/kappa, from CHO-S cells; Signal peptide left out; also called chimeric variant cMP-RM-1 #1) VH: DVQLVESGGDLVKPGGSLKLSCVVSGFTFSTYGMSWVRQTPDRRLEWVATISHGDGYTYYPDSVKGRFTISRDNAKNTLHLQMSSLKSEDTAMYYCARHGDYDDDYYAMDYWGQGTSVTFSS VL: DIVMTQSPSSLTVIAGEKVTMSCKSSQSLLNSGNQKNYLTWYQQKPGQPPKLLIYWASTRESGVPDRFTGSGSGTDFTLTISSVQAEDLAVYYCQNEYTYPLTFGAGTKLEIKR | –
binds | hMP-RM-1 #20 (antibody, human IgG1, kappa, V domains shown, Humanized IgG1/kappa, from CHO-S cells) VH: DVQLVESGGDLVKPGGSLKLSCVASGFTFSTYGMSWVRQTPDRRLEWVATISHGDGYTYYPDSVKGRFTISRDNAKNTLHLQMSSLKSEDTAMYYCARHGDYDDDYYAMDYWGQGTTVTVSS VL: DIVMTQSPSSLTVSLGERATMSCKSSQSLLNSGNQKNYLTWYQQKPGQPPKLLIYWASTRESGVPDRFSGSGSGTDFTLTISSVQAEDVAVYYCQNEYTYPLTFGGGTKLELKR | –
